Reference: patent US20050260177A1

Key:
[1] = molecular target: Ra12-C888P fusion protein (human C888P fused to Mycobacterium tuberculosis Ra12); test: ELISA, RC888P on plate, serum 1:128000, well 1
[2] = molecular target: Ra12-C888P fusion protein (human C888P fused to Mycobacterium tuberculosis Ra12); test: ELISA, RC888P on plate, serum 1:4000, average of 2 wells
[3] = molecular target: Ra12-C888P fusion protein (human C888P fused to Mycobacterium tuberculosis Ra12); test: ELISA, RC888P on plate, serum 1:16000, average of 2 wells
[4] = molecular target: Ra12-C888P fusion protein (human C888P fused to Mycobacterium tuberculosis Ra12); test: ELISA, RC888P on plate, serum 1:256000, average of 2 wells
[5] = molecular target: Ra12-C888P fusion protein (human C888P fused to Mycobacterium tuberculosis Ra12); test: ELISA, RC888P on plate, serum 1:2000, well 2
[6] = molecular target: Ra12-C888P fusion protein (human C888P fused to Mycobacterium tuberculosis Ra12); test: ELISA, RC888P on plate, serum 1:64000, average of 2 wells
[7] = molecular target: Ra12-C888P fusion protein (human C888P fused to Mycobacterium tuberculosis Ra12); test: ELISA, RC888P on plate, serum 1:4000, well 2
[8] = molecular target: Ra12-C888P fusion protein (human C888P fused to Mycobacterium tuberculosis Ra12); test: ELISA, RC888P on plate, serum 1:1024000, well 1
[9] = molecular target: Ra12-C888P fusion protein (human C888P fused to Mycobacterium tuberculosis Ra12); test: ELISA, RC888P on plate, serum 1:8000, well 1
[10] = molecular target: Ra12-C888P fusion protein (human C888P fused to Mycobacterium tuberculosis Ra12); test: ELISA, RC888P on plate, serum 1:8000, average of 2 wells
[11] = molecular target: Ra12-C888P fusion protein (human C888P fused to Mycobacterium tuberculosis Ra12); test: ELISA, RC888P on plate, serum 1:32000, well 2
[12] = molecular target: Ra12-C888P fusion protein (human C888P fused to Mycobacterium tuberculosis Ra12); test: ELISA, RC888P on plate, serum 1:16000, well 1
[13] = molecular target: Ra12-C888P fusion protein (human C888P fused to Mycobacterium tuberculosis Ra12); test: ELISA, RC888P on plate, serum 1:512000, well 1
[14] = molecular target: Ra12-C888P fusion protein (human C888P fused to Mycobacterium tuberculosis Ra12); test: ELISA, RC888P on plate, serum 1:64000, well 2
[15] = molecular target: Ra12-C888P fusion protein (human C888P fused to Mycobacterium tuberculosis Ra12); test: ELISA, RC888P on plate, serum 1:32000, average of 2 wells
[16] = molecular target: Ra12-C888P fusion protein (human C888P fused to Mycobacterium tuberculosis Ra12); test: ELISA, RC888P on plate, serum 1:1000, average of 2 wells
[17] = molecular target: Ra12-C888P fusion protein (human C888P fused to Mycobacterium tuberculosis Ra12); test: ELISA, RC888P on plate, serum 1:512000, well 2
[18] = molecular target: Ra12-C888P fusion protein (human C888P fused to Mycobacterium tuberculosis Ra12); test: ELISA, RC888P on plate, serum 1:1000, well 1
[19] = molecular target: Ra12-C888P fusion protein (human C888P fused to Mycobacterium tuberculosis Ra12); test: ELISA, RC888P on plate, serum 1:1024000, well 2
[20] = molecular target: Ra12-C888P fusion protein (human C888P fused to Mycobacterium tuberculosis Ra12); test: ELISA, RC888P on plate, serum 1:32000, well 1
[21] = molecular target: Ra12-C888P fusion protein (human C888P fused to Mycobacterium tuberculosis Ra12); test: ELISA, RC888P on plate, serum 1:256000, well 2
[22] = molecular target: Ra12-C888P fusion protein (human C888P fused to Mycobacterium tuberculosis Ra12); test: ELISA, RC888P on plate, serum 1:512000, average of 2 wells
[23] = molecular target: Ra12-C888P fusion protein (human C888P fused to Mycobacterium tuberculosis Ra12); test: ELISA, RC888P on plate, serum 1:4000, well 1
[24] = molecular target: Ra12-C888P fusion protein (human C888P fused to Mycobacterium tuberculosis Ra12); test: ELISA, RC888P on plate, serum 1:8000, well 2
[25] = molecular target: Ra12-C888P fusion protein (human C888P fused to Mycobacterium tuberculosis Ra12); test: ELISA, RC888P on plate, serum 1:1000, well 2
[26] = molecular target: Ra12-C888P fusion protein (human C888P fused to Mycobacterium tuberculosis Ra12); test: ELISA, RC888P on plate, serum 1:64000, well 1
[27] = molecular target: Ra12-C888P fusion protein (human C888P fused to Mycobacterium tuberculosis Ra12); test: ELISA, RC888P on plate, serum 1:2000, average of 2 wells
[28] = molecular target: Ra12-C888P fusion protein (human C888P fused to Mycobacterium tuberculosis Ra12); test: ELISA, RC888P on plate, serum 1:128000, average of 2 wells
[29] = molecular target: Ra12-C888P fusion protein (human C888P fused to Mycobacterium tuberculosis Ra12); test: ELISA, RC888P on plate, serum 1:128000, well 2
[30] = molecular target: Ra12-C888P fusion protein (human C888P fused to Mycobacterium tuberculosis Ra12); test: ELISA, RC888P on plate, serum 1:2000, well 1
[31] = molecular target: Ra12-C888P fusion protein (human C888P fused to Mycobacterium tuberculosis Ra12); test: ELISA, RC888P on plate, serum 1:256000, well 1
[32] = molecular target: Ra12-C888P fusion protein (human C888P fused to Mycobacterium tuberculosis Ra12); test: ELISA, RC888P on plate, serum 1:16000, well 2
[33] = molecular target: Ra12-C888P fusion protein (human C888P fused to Mycobacterium tuberculosis Ra12); test: ELISA, RC888P on plate, serum 1:1024000, average of 2 wells

Preimmune sera (antibody) was tested, and the ELISA absorbance at 450 nm [1] was 0.06 OD450, the ELISA absorbance at 450 nm [2] was 0.06 OD450 and the ELISA absorbance at 450 nm [3] was 0.06 OD450. It also gave an ELISA absorbance at 450 nm [4] of 0.06 OD450, an ELISA absorbance at 450 nm [5] of 0.05 OD450 and an ELISA absorbance at 450 nm [6] of 0.06 OD450. For the same substance, the ELISA absorbance at 450 nm [7] was 0.05 OD450, the ELISA absorbance at 450 nm [8] was 0.06 OD450 and the ELISA absorbance at 450 nm [9] was 0.06 OD450. For the same substance, the ELISA absorbance at 450 nm [10] was 0.06 OD450, the ELISA absorbance at 450 nm [11] was 0.05 OD450 and the ELISA absorbance at 450 nm [12] was 0.06 OD450. The ELISA absorbance at 450 nm [13] was 0.06 OD450, the ELISA absorbance at 450 nm [14] was 0.05 OD450 and the ELISA absorbance at 450 nm [15] was 0.06 OD450. It also gave an ELISA absorbance at 450 nm [16] of 0.07 OD450, an ELISA absorbance at 450 nm [17] of 0.05 OD450 and an ELISA absorbance at 450 nm [18] of 0.09 OD450. The ELISA absorbance at 450 nm [19] was 0.06 OD450, the ELISA absorbance at 450 nm [20] was 0.06 OD450 and the ELISA absorbance at 450 nm [21] was 0.06 OD450. The ELISA absorbance at 450 nm [22] was 0.06 OD450, the ELISA absorbance at 450 nm [23] was 0.06 OD450 and the ELISA absorbance at 450 nm [24] was 0.06 OD450. The ELISA absorbance at 450 nm [25] was 0.06 OD450, the ELISA absorbance at 450 nm [26] was 0.06 OD450 and the ELISA absorbance at 450 nm [27] was 0.06 OD450. It also gave an ELISA absorbance at 450 nm [28] of 0.06 OD450, an ELISA absorbance at 450 nm [29] of 0.06 OD450 and an ELISA absorbance at 450 nm [30] of 0.06 OD450. For the same substance, the ELISA absorbance at 450 nm [31] was 0.06 OD450, the ELISA absorbance at 450 nm [32] was 0.05 OD450 and the ELISA absorbance at 450 nm [33] was 0.06 OD450.
